Measured values as given in US20240209076A1 (KODIAK SCIENCES, published 2024).

Biological target: T1, recombinant human IL-6 (human, UniProt P05231 30-212)
T1 construct: Bought protein
Assay: SPR Biacore, supernatant Ab on Protein A chip, IL-6 analyte, 25 C
Method: Antibodies were captured on a Protein A chip (GE) by injecting 1:20 dilution of cell supernatant at 10 μL/min for 60 seconds. […] The sensor chip was regenerated by a 60 seconds injection of 10 mM Glycine pH 1.7 at flow rate of 50 μL/min. […] For this setup, 1 μg/mL of purified antibody was injected over a Protein A chip at 10 μL/min for 25-28 seconds. Data analysis for supernatant and purified samples were performed using BIAevaluation software (GE). All sensorgrams were double reference subtracted and fit using a 1:1 Langmuir binding model.

T1 sequence (P05231 30-212 limits assumed): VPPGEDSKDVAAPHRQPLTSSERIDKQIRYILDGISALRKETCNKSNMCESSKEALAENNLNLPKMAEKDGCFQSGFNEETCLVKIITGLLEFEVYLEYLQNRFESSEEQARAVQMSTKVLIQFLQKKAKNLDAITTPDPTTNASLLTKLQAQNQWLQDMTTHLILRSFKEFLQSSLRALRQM

B1: anti-IL-6 antibody, light chain S55W (heavy chain WT) (antibody, V domains shown)
VH: EVQLVESGGGLVQPGGSLRLSCAASGFTFSPFAMSWVRQAPGKGLEWVAKISPGGSWTYYSDTVTGRFTFSLDTSKSTAYLQMNSLRAEDTAVYYCARQLWGYYALDIWGQGTLVTVSS
VL: DIQLTQSPSSLSASVGDRVTITCSASISVSYMYWYQQKPGKAPKLLIYDMSNLAWGVPSRFSGSGSGTDFTLTISSLQPEDFATYYCMQWSGYPYTFGQGTKVEIK
notes: See note of m2; also called WT / S55W
B1 gave a Kd of 0.401 nM, a koff of 0.000226 s⁻¹ and a kon of 563000 M⁻¹ s⁻¹.

B2: anti-IL-6 antibody, light chain S55Y (heavy chain WT) (antibody, V domains shown)
VH: EVQLVESGGGLVQPGGSLRLSCAASGFTFSPFAMSWVRQAPGKGLEWVAKISPGGSWTYYSDTVTGRFTFSLDTSKSTAYLQMNSLRAEDTAVYYCARQLWGYYALDIWGQGTLVTVSS
VL: DIQLTQSPSSLSASVGDRVTITCSASISVSYMYWYQQKPGKAPKLLIYDMSNLAYGVPSRFSGSGSGTDFTLTISSLQPEDFATYYCMQWSGYPYTFGQGTKVEIK
notes: See note of m2; also called WT / S55Y
B2 gave a Kd of 0.461 nM, a koff of 0.000201 s⁻¹ and a kon of 436000 M⁻¹ s⁻¹.

B3: anti-IL-6 antibody, light chain S91A (heavy chain WT) (antibody, V domains shown)
VH: EVQLVESGGGLVQPGGSLRLSCAASGFTFSPFAMSWVRQAPGKGLEWVAKISPGGSWTYYSDTVTGRFTFSLDTSKSTAYLQMNSLRAEDTAVYYCARQLWGYYALDIWGQGTLVTVSS
VL: DIQLTQSPSSLSASVGDRVTITCSASISVSYMYWYQQKPGKAPKLLIYDMSNLASGVPSRFSGSGSGTDFTLTISSLQPEDFATYYCMQWAGYPYTFGQGTKVEIK
notes: See note of m2; also called WT / S91A
For B3, the Kd was 0.407 nM, the koff was 0.000139 s⁻¹ and the kon was 341000 M⁻¹ s⁻¹.

B4: anti-IL-6 antibody, light chain V29L (heavy chain WT) (antibody, V domains shown)
VH: EVQLVESGGGLVQPGGSLRLSCAASGFTFSPFAMSWVRQAPGKGLEWVAKISPGGSWTYYSDTVTGRFTFSLDTSKSTAYLQMNSLRAEDTAVYYCARQLWGYYALDIWGQGTLVTVSS
VL: DIQLTQSPSSLSASVGDRVTITCSASISLSYMYWYQQKPGKAPKLLIYDMSNLASGVPSRFSGSGSGTDFTLTISSLQPEDFATYYCMQWSGYPYTFGQGTKVEIK
notes: See note of m2; also called WT / V29L
In the case of B4, the Kd is reported as 0.487 nM, the koff is reported as 0.000171 s⁻¹ and the kon is reported as 351000 M⁻¹ s⁻¹.

B5: anti-IL-6 antibody, light chain Y31F (heavy chain WT) (antibody, V domains shown)
VH: EVQLVESGGGLVQPGGSLRLSCAASGFTFSPFAMSWVRQAPGKGLEWVAKISPGGSWTYYSDTVTGRFTFSLDTSKSTAYLQMNSLRAEDTAVYYCARQLWGYYALDIWGQGTLVTVSS
VL: DIQLTQSPSSLSASVGDRVTITCSASISVSFMYWYQQKPGKAPKLLIYDMSNLASGVPSRFSGSGSGTDFTLTISSLQPEDFATYYCMQWSGYPYTFGQGTKVEIK
notes: See note of m2; also called WT / Y31F
B5 gave a Kd of 0.472 nM, a koff of 0.000138 s⁻¹ and a kon of 292000 M⁻¹ s⁻¹.

B6: anti-IL-6 antibody, light chain Y31G (heavy chain WT) (antibody, V domains shown)
VH: EVQLVESGGGLVQPGGSLRLSCAASGFTFSPFAMSWVRQAPGKGLEWVAKISPGGSWTYYSDTVTGRFTFSLDTSKSTAYLQMNSLRAEDTAVYYCARQLWGYYALDIWGQGTLVTVSS
VL: DIQLTQSPSSLSASVGDRVTITCSASISVSGMYWYQQKPGKAPKLLIYDMSNLASGVPSRFSGSGSGTDFTLTISSLQPEDFATYYCMQWSGYPYTFGQGTKVEIK
notes: See note of m2; also called WT / Y31G
B6 was tested, and the Kd was 0.666 nM, the koff was 0.000203 s⁻¹ and the kon was 305000 M⁻¹ s⁻¹.

B7: anti-IL-6 antibody, light chain Y48W (heavy chain WT) (antibody, V domains shown)
VH: EVQLVESGGGLVQPGGSLRLSCAASGFTFSPFAMSWVRQAPGKGLEWVAKISPGGSWTYYSDTVTGRFTFSLDTSKSTAYLQMNSLRAEDTAVYYCARQLWGYYALDIWGQGTLVTVSS
VL: DIQLTQSPSSLSASVGDRVTITCSASISVSYMYWYQQKPGKAPKLLIWDMSNLASGVPSRFSGSGSGTDFTLTISSLQPEDFATYYCMQWSGYPYTFGQGTKVEIK
notes: See note of m2; also called WT / Y48W
In the case of B7, the Kd is reported as 0.356 nM, the koff is reported as 0.000123 s⁻¹ and the kon is reported as 345000 M⁻¹ s⁻¹.

B8: anti-IL-6 antibody, light chain Y95G (heavy chain WT) (antibody, V domains shown)
VH: EVQLVESGGGLVQPGGSLRLSCAASGFTFSPFAMSWVRQAPGKGLEWVAKISPGGSWTYYSDTVTGRFTFSLDTSKSTAYLQMNSLRAEDTAVYYCARQLWGYYALDIWGQGTLVTVSS
VL: DIQLTQSPSSLSASVGDRVTITCSASISVSYMYWYQQKPGKAPKLLIYDMSNLASGVPSRFSGSGSGTDFTLTISSLQPEDFATYYCMQWSGYPGTFGQGTKVEIK
notes: See note of m2; also called WT / Y95G
B8 was tested, and the Kd was 0.383 nM, the koff was 0.000338 s⁻¹ and the kon was 882000 M⁻¹ s⁻¹.

B9: anti-IL-6 antibody, light chain Y95I (heavy chain WT) (antibody, V domains shown)
VH: EVQLVESGGGLVQPGGSLRLSCAASGFTFSPFAMSWVRQAPGKGLEWVAKISPGGSWTYYSDTVTGRFTFSLDTSKSTAYLQMNSLRAEDTAVYYCARQLWGYYALDIWGQGTLVTVSS
VL: DIQLTQSPSSLSASVGDRVTITCSASISVSYMYWYQQKPGKAPKLLIYDMSNLASGVPSRFSGSGSGTDFTLTISSLQPEDFATYYCMQWSGYPITFGQGTKVEIK
notes: See note of m2; also called WT / Y95I
B9 was tested, and the Kd was 7.48 nM, the koff was 0.00444 s⁻¹ and the kon was 593000 M⁻¹ s⁻¹.
